Results published in patent publication US11123413B2, “Carbapenemases for use with antibiotics for the protection of the intestinal microbiome” (priority 2015, dated 2021).

B1: NDM: New Delhi metallo-β-lactamase NDM-1; NDM-68 = product of strain STY-NP1602-68 (STII Δ35, N-terminal GQQMETG) (protein)
chain: GQQMETGDQRFGDLVFRQLAPNVWQHTSYLDMPGFGAVASNGLIVRDGGRVLVVDTAWTDDQTAQILNWIKQEINLPVALAVVTHAHQDKMGGMDALHAAGIATYANALSNQLAPQEGMVAAQHSLTFAANGWVEPATAPNFGPLKVFYPGPGHTSDNITVGIDGTDIAFGGCLIKDSKAKSLGNLGDADTEHYAASARAFGAAFPKASMIVMSHSAPDSRAAITHTARMADKLR
B2: P2A: broad spectrum carbapenemase, class B metallo-enzyme requiring zinc, SEQ ID NO: 37; P2A-21 = product of strain SYT-PP0602-21 (protein)
chain: ETGTISISQLNKNVWVHTELGYFNGEAVPSNGLVLNTSKGLVLVDSSWDNKLTKELIEMVEKKFQKRVTDVIITHAHADRIGGITALKERGIKAHSTALTAELAKNSGYEEPLGDLQTITSLKFGNTKVETFYPGKGHTEDNIVVWLPQYQILAGGCLVKSAEAKDLGNVADAYVNEWSTSIENVLKRYGNINSVVPGHGEVGDKGLLLHTLDLLK

Legend:
[1] = Proteolytic cleavage of NDM in 2% human chyme or porcine pancreatic elastase, N-terminal sequencing of fragments; assay type: in vitro ADME; settings: 500 ug/mL in 2% mixed human chyme
Method: The loss of NDM activity upon incubation with human chyme was due to the proteolytic cleavage of NDM by endogenous proteases present in human chyme. To map the cleavage sites within the NDM protein, NDM ([…]) was incubated with 2% mixed human chyme (human chyme diluted with incubation buffer, 20 mM Hepes pH 6.2; 150 mM NaCl, 100 uM ZnSO4) for times ranging from 0 to 180 minutes. Twenty microliters of each sample (1 ug) was removed and transferred to 20 μL of 2× denaturing sample buffer for a final concentration of 25 ng/μL. The samples were boiled and 10 μL (250 ng of NDM) was subjected to analysis by SDS-PAGE. NDM was rapidly degraded, in 0-15 minutes, into 5 distinct cleavage fragments (FIG. 26). […]
To map the proteolytic cleavage sites of the NDM fragments, NDM was incubated with 2% mixed human chyme as described for 0 or 15 minutes. […] The NDM digestions were analyzed by SDS/PAGE, the gel equilibrated in 1× Tris-Glycine transfer buffer and the proteins were transferred to an equilibrated Sequi-Blot PVDF membrane by wet transfer in Tris-glycine buffer. […] The isolated fragments were analyzed by N-terminal sequencing of the first 5 amino acids using a Perkin Elmer Applied Biosystems Model 494 Procise protein/peptide sequencer with an on-line Perkin Elmer Applied Biosystems Model 140C PTH Amino Acid Analyzer. […]

[2] = KPC and NDM stability in mixed human chyme versus buffer (CENTA); assay type: in vitro ADME; settings: 100 μM ZnSO4, 37° C., 80 ng/mL
Method: The stability of KPC and NDM in human chyme at 37° C. was evaluated by adding purified KPC or NDM (final concentration of 80 ng/mL) to mixed human chyme that contained equal volumes of each of five human chyme specimens collected from five different donors. ZnSO4 was added to the mixed chyme for a final concentration of 100 μM ZnSO4. Aliquots of the enzyme/chyme mixture were collected at 0, 30, 60, 120, 180, and 240 minutes of incubation and evaluated for beta-lactamase activity with a chromogenic assay using the CENTA reagent as the substrate. The biological activity of the enzymes in the mixed chyme was compared to the activity in buffer (HEPES buffer, 100 μM ZnSO4 pH 6.2).

E. coli (ATCC 25922) = experiment: Antibiotic inactivation screening assay via E. coli growth (96 well plate, OD625); assay type: cell-based; settings: 10 ng/ml or 100 ng/ml enzyme (FIG. 35)
[3] = Oral P2A and intravenous cefotaxime in jejunal-fistulated dogs; assay type: in vivo, laboratory beagles; settings: peroral P2A 1 mg/kg, intravenous cefotaxime 60 mg/kg, omeprazole
Method: The ability of P2A to degrade cefotaxime in the dog intestinal tract was evaluated using laboratory beagles that had permanent jejunal fistulas. The fistulas allowed the repeated collection of jejunal chyme specimens from these animals. Dogs were treated with peroral P2A (1 mg/kg) in a liquid formulation (PBS buffer), and/or intravenous cefotaxime (60 mg/kg). A single dose of omeprazole (10 mg) was delivered orally to each dog prior to treatment with ceftriaxone and/or P2A to inhibit the HCl activity in the stomach to potentially reduce P2A degradation. Serum samples were collected and serum cefotaxime levels quantified. Jejunal chyme samples were collected and cefotaxime and P2A levels were quantified. Cefotaxime levels in serum and chyme were measured using a plate diffusion method using cefotaxime susceptible Micrococcus luteus TS504 as the test strain. P2A activity levels in chyme were determined spectrophotometrically using meropenem as a substrate. Meropenem hydrolysis was monitored at a wavelength of 297 nm.

Molecule | time at which protein and fragments were undetectable [1] [min] | time of degradation into 5 distinct cleavage fragments [1] [min] | time by which activity was lost / not detectable [2] [min] | activity against cephalosporins compared to SYN-004 or P4A (E. coli (ATCC 25922)) | cefotaxime in jejunal chyme [3] | effect on serum levels of cefotaxime [3]
B1 | 60 to 90 | 0 to 15 | ≤ 30 | – | – | –
B2 | – | – | – | not as active against the cephalosporins, cefozolin, cefoperazone, cefepime, and ceftazidime | degraded cefotaxime | does not reduce serum levels of cefotaxime
